Data as given in the supplement of paper PMC11316812.
± gives the standard deviation of the averaged measurements.

Columns and labels:
[1] = system: MCF7; assay: percentage of EdU-negative (G0-arrested) nuclei per well, 72 h; higher = more G0 arrest; settings: reference: sequence is the full UniProt precursor, the tested protein was the secreted form or ectodomain
[2] = system: hTERT-HMEC; assay: as above; settings: reference: sequence is the full UniProt precursor, the tested protein was the secreted form or ectodomain
[3] = protein concentration 0.0225 µM
[4] = protein concentration 0.03125 µM
[5] = protein concentration 0.3125 µM
[6] = protein concentration 0.0357143 µM
[7] = protein concentration 0.357143 µM
[8] = protein concentration 0.0133825 µM
[9] = protein concentration 0.133825 µM
[10] = protein concentration 0.0165714 µM
[11] = protein concentration 0.165714 µM
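Note: secreted proteins added to cultured cells, EdU pulse at the end, nuclei found by Hoechst imaging, EdU status from nuclear versus surrounding ring intensity ratio, PBS as neutral control.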

**Q.** “MGPLPVCLPIMLLLLLPSLLLLLLLPGPGSGEASRILRVHRRGILELAGTVGCVGPRTPIAYMKYGCFCGLGGHGQPRDAIDWCCHGHDCCYTRAEEAGCSPKTERYSWQCVNQSVLCGPAENKCQELLCKCDQEIANCLAQTEYNLKYLFYPQFLCEPDSPKCD” was tested. Which “percentage of EdU-negative” value [1, 3] did it give?
**A.** Its value is 29.3 ± 2.5%.

**Q.** What about the “percentage of EdU-negative” value ([1]; protein concentration 0.225 µM) of the same sequence?
**A.** Its value is 31.17 ± 0.13%.

**Q.** What about the “percentage of EdU-negative” value [2, 3] of the same sequence?
**A.** Its value is 7.05 ± 0.95%.

**Q.** What about the “percentage of EdU-negative” value ([2]; protein concentration 0.225 µM) of the same sequence?
**A.** The value was 10.3 ± 2.1%.

**Q.** With “MGPLSAPPCTEHIKWKGLLLTALLLNFWNLPTTAQVMIEAQPPKVSEGKDVLLLVHNLPQNLTGYIWYKGQIRDLYHYITSYVVDGQIIIYGPAYSGRETVYSNASLLIQNVTREDAGSYTLHIIKRGDGTRGVTGYFTFTLYLETPKPSISSSNLNPREAMETVILTCNPETPDASYLWWMNGQSLPMTHRMQLSETNRTLFLFGVTKYTAGPYECEIWNSGSASRSDPVTLNLLHGPDLPRIFPSVTSYYSGENLDLSCFANSNPPAQYSWTINGKFQLSGQKLFIPQITPKHNGLYACSARNSATGEESSTSLTIRVIAPPGLGTFAFNNPT [Q9UQ72]” as the sequence, how does the “percentage of EdU-negative” value [1, 4] read?
**A.** The value was 24.9 ± 4.1%.

**Q.** What about the “percentage of EdU-negative” value [1, 5] of the same sequence?
**A.** Its value is 26.7 ± 1.1%.

**Q.** What about the “percentage of EdU-negative” value [2, 4] of the same sequence?
**A.** Its value is 4.83 ± 0.7%.

**Q.** And the “percentage of EdU-negative” value [2, 5]?
**A.** The value was 5.46 ± 1.1%.

**Q.** “MGPLSAPPCTEHIKWKGLLVTASLLNFWNLPTTAQVTIEAQPPKVSEGKDVLLLVHNLPQNLTGYIWYKGQIRDLYHYITSYVVDGQIIIYGPAYSGRETAYSNASLLIQNVTREDAGSYTLHIIKRGDGTRGVTGYFTFTLYLETPKPSISSSNLNPREAMETVILTCDPETPDTSYQWWMNGQSLPMTHRFQLSETNRTLFLFGVTKYTAGPYECEIRNSGSASRSDPVTLNLLHGPDLPRIHPSYTNYRSGDNLYLSCFANSNPPAQYSWTINGKFQQSGQNLFIPQITTKHSGLYVCSVRNSATGEESSTSLTVKVSASTRIGLLPLLNPT” was tested. Which “percentage of EdU-negative” value [1, 6] did it give?
**A.** The value was 24.9 ± 2.1%.

**Q.** And the “percentage of EdU-negative” value [1, 7]?
**A.** The value was 25.4 ± 0.54%.

**Q.** And the “percentage of EdU-negative” value [2, 6]?
**A.** The value was 4.65 ± 0.56%.

**Q.** What about the “percentage of EdU-negative” value [2, 7] of the same sequence?
**A.** Its value is 5.32 ± 1.1%.

**Q.** For “MGPLSAPPCTQHITWKGLLLTASLLNFWNLPITAQVTIEALPPKVSEGKDVLLLVHNLPQNLAGYIWYKGQLMDLYHYITSYVVDGQINIYGPAYTGRETVYSNASLLIQNVTREDAGSYTLHIIKRGDRTRGVTGYFTFNLYLKLPKPYITINNSKPRENKDVLAFTCEPKSENYTYIWWLNGQSLPVSPRVKRPIENRILILPSVTRNETGPYECEIRDRDGGMRSDPVTLNVLYGPDLPSIYPSFTYYRSGENLYLSCFAESNPPAEYFWTINGKFQQSGQKLSIPQITTKHRGLYTCSVRNSATGKESSKSMTVEVSAPSGIGRLPLLNPI”, which “percentage of EdU-negative” value [1, 4] is on record?
**A.** Its value is 24.6 ± 2.5%.

**Q.** What about the “percentage of EdU-negative” value [1, 5] of the same sequence?
**A.** The value was 26.86 ± 0.057%.

**Q.** And the “percentage of EdU-negative” value [2, 4]?
**A.** The value was 4.75 ± 0.52%.

**Q.** What about the “percentage of EdU-negative” value [2, 5] of the same sequence?
**A.** The value was 4.28 ± 0.12%.

**Q.** With “MGPLSAPPCTQHITWKGLLLTASLLNFWNLPTTAQVIIEAKPPKVSEGKDVLLLVHNLPQNLTGYIWYKGQMTDLYHYITSYVVHGQIIYGPAYSGRETVYSNASLLIQNVTQEDAGSYTLHIIKRGDGTGGVTGYFTVTLYSETPKPSISSSNLNPREVMEAVRLICDPETPDASYLWLLNGQNLPMTHRLQLSKTNRTLYLFGVTKYIAGPYECEIRNPVSASRSDPVTLNLLPKLPMPYITINNLNPREKKDVLAFTCEPKSRNYTYIWWLNGQSLPVSPRVKRPIENRILILPSVTRNETGPYQCEIRDRYGGIRSNPVTLNVLYGPDLPRIYPSFTYYRSGENLDLSCFADSNPPAEYSWTINGKFQLSGQKLFIPQITTNHSGLYACSVRNSATGKEISKSMIVKVSETASPQVTYAGPNTWFQEILLL” as the sequence, how does the “percentage of EdU-negative” value [1, 8] read?
**A.** The value was 24.7 ± 1.5%.

**Q.** And the “percentage of EdU-negative” value [1, 9]?
**A.** The value was 27.3 ± 1.4%.

**Q.** What about the “percentage of EdU-negative” value [2, 8] of the same sequence?
**A.** Its value is 4.917 ± 0.044%.

**Q.** What about the “percentage of EdU-negative” value [2, 9] of the same sequence?
**A.** The value was 5.76 ± 1.7%.

**Q.** With “MGPLSAPPCTQRITWKGLLLTALLLNFWNLPTTAQVTIEAEPTKVSKGKDVLLLVHNLPQNLAGYIWYKGQMKDLYHYITSYVVDGQIIIYGPAYSGRETVYSNASLLIQNVTREDAGSYTLHIVKRGDGTRGETGHFTFTLYLETPKPSISSSNLYPREDMEAVSLTCDPETPDASYLWWMNGQSLPMTHSLQLSKNKRTLFLFGVTKYTAGPYECEIRNPVSASRSDPVTLNLLPKLPKPYITINNLNPRENKDVLAFTCEPKSENYTYIWWLNGQSLPVSPRVKRPIENRILILPSVTRNETGPYQCEIQDRYGGIRSYPVTLNVLYGPDLPRIYPSFTYYHSGENLYLSCFADSNPPAEYSWTINGKFQLSGQKLFIPQITTKHSGLYACSVRNSATGMESSKSMTVKVSAPSGTGHLPGLNPL” as the sequence, how does the “percentage of EdU-negative” value [1, 10] read?
**A.** Its value is 24.4 ± 1.2%.

**Q.** What about the “percentage of EdU-negative” value [1, 11] of the same sequence?
**A.** The value was 24.3 ± 0.28%.

**Q.** What about the “percentage of EdU-negative” value [2, 10] of the same sequence?
**A.** Its value is 4.85 ± 0.26%.

**Q.** And the “percentage of EdU-negative” value [2, 11]?
**A.** The value was 5.01 ± 0.47%.
